Source: patent publication US20210155712A1

Columns and labels:
[1] = molecular target: human HER3 expressed on cells (human) (UniProt P21860); experiment: flow cytometry, HEK293T HER3 O/E cells, 10 ug antibody, FITC channel
[2] = molecular target: recombinant human HER3 (human) (UniProt P21860); experiment: BLI (Octet QK384), antibody on AHC sensors, His-tagged human HER3 in solution, absence of human NRG1
[3] = molecular target: human HER3:human NRG1 complex (human) (UniProt Q02297); experiment: BLI (Octet QK384), antibody on AHC sensors, human HER3-NRG1 complex (1:1 molar ratio) in solution, presence of human NRG1

anti-HER3 antibody clone LJM716, sequence (VH): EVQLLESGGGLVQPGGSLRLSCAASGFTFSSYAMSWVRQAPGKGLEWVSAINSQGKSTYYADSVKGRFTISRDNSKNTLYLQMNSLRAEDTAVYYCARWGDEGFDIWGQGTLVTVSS
anti-HER3 antibody clone LJM716, sequence (VL): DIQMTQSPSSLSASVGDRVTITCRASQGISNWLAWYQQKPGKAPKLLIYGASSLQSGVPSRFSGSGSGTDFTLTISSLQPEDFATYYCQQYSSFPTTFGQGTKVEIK

Substance: anti-HER3 antibody clone LJM716
- % Parent (HER3 positive) [1]: 74.4%
- Kd [2]: < 0.001 nM
- Kd [3]: 16.8 nM
